Values of other authors, collected in paper PMC3781210.
Read-outs that look alike come from different tables or passages of the source. One block for each substance: values may come before it.

Key:
Beclin 1 (Homo sapiens) [1] = target: Beclin 1 (Homo sapiens) (UniProt Q14457)
Beclin 1 (Homo sapiens) [2] = target: Beclin 1 (Homo sapiens) (UniProt Q14457); remark: listed apart in the source
Beclin 1 (Homo sapiens) [3] = target: Beclin 1 (Homo sapiens) (UniProt Q14457); remark: listed apart in the source

Chain of UniProt Q14457 (Q14457 150-450): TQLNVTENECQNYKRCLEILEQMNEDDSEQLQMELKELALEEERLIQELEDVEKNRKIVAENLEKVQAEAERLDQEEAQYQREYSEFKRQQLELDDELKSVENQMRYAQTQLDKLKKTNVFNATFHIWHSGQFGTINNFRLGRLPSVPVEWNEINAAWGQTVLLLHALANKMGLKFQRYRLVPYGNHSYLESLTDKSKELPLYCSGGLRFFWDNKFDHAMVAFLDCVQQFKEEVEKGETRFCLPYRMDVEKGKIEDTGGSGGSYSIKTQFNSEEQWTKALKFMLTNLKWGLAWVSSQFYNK

Kd (Beclin 1 (Homo sapiens) [1]): 1700 nM
Substance: Bcl-2 (from UniProt P10415)

Kd (Beclin 1 (Homo sapiens) [2]): 1700 nM
Substance: Bcl-XL (from UniProt Q07817)

Substance: vBcl-2 (from UniProt P89884)
Kd (Beclin 1 (Homo sapiens) [3]): 40 nM
